Source: article PMC10501769 (eLife, 2023)

Target: the molecule itself
Experiment: SEC

B1: His-tagged Rv0158 protein of Mycobacterium tuberculosis H37Rv (natural protein)
chain: MPSDTSPNGLSRREELLAVATKLFAARGYHGTRMDDVADVIGLNKATVYHYYASKSLILFDIYRQAAEGTLAAVHDDPSWTAREALYQYTVRLLTAIASNPERAAVYFQEQPYITEWFTSEQVAEVREKEQQVYEHVHGLIDRGIASGEFYECDSHVVALGYIGMTLGSYRWLRPSGRRTAKEIAAEFSTALLRGLIRDESIRNQSPLGTRKET
notes: also called Histidine-tagged Rv0158; hexahistidine-tagged Rv0158 protein
With B1 the “stoichiometry N” value was 2.
